Measurements published in US6670160B2, “α1,2-fucosyltransferase” (priority 1998, dated 2003).
“And” between values parts separate entries of the source, which are not always exact repeats. Identical values can stand only once.

Key:
Type in all cases: biochemical
[1] = Fucosyltransferase assay (GDP-[3H]fucose), acceptor Le^X; details: for total activity: from 25 ml cell culture
Experimental: (§1) In a typical experiment, E. coli CLM4 (pGP1-2) cells haboring a plasmid carrying an H. pylori fucT gene (pBKHp763fucT39, pGEMH2, pGEMI6 or pGEMB3) were grown in 25 ml liquid LB medium with appropriate antibiotics (kanamycin and ampicillin) at 30° C. to an optical density of 0.5-0.7 at 600 nm. After being collected, the cells were washed once with M9 medium, resuspended in 5 ml of supplemented M9 medium, and farther incubated at 30° C. for 1 h. To induce the expression of the fucT gene, the cell culture was shifted to 42° C. by adding 5 ml prewarmed (55° C.) supplemented M9 medium. After incubation at 42° C. for 15 min, rifampicin was added to a final concentration of 200 μg/ml, and cell growth was continued at 42° C. for 20 min.
(§2) For analysis of the protein on SDS-PAGE, a small aliquot (0.5 ml) of the cell culture was taken, and 2.5 μl of [^35S]-methionine (4.35×10^13 Bq/mmol, 3.7×10^8 Bq/ml, NEN™, Boston, Mass.) was added. After further growth at 30° C. for 30 min, the cells were harvested, resuspended in 100 μl sample buffer (50 mM Tris-HCl, pH6.8, 1% (w/v) SDS, 20 mM EDTA, 1% (v/v) mercaptoethanol, 10% (v/v) glycerol), and boiled for 3 min before loading on to the gel. For the preparation of the sample for the enzyme assay, the remaining part (major aliquot, 9.5 ml) of the cell culture after induction was further incubated at 30° C. for 30 min, then harvested. The cells were washed with 1.5 ml of 20 mM HEPES (pH 7.0), and resuspended in 1.5 ml of this buffer supplemented with 0.5 mM PMSF.
(§3) Preparation of cell lysates or cell extracts for the fucosyltransferase assay. The E. coli cells containing overproduced Hp FucT proteins, which were in HEPES buffer with PMSF as described above, were disrupted with a French press at 7000 lb/in^2 at 4° C. The cell lysates were used directly for enzyme assays. For determining the location of the enzyme activities, the cytoplasmic and membrane fractions were separated as follows. The cell lysates were centrifuged at 13,000× g at 4° C. for 10 min. The cell debris were discarded and the supernatant was subjected to ultracentrifugation at 128,000× g (Beckman TL100/rotor 100.2) at 4° C. for 1 h. The supernatant was collected as the cytoplasmic fraction. The membrane pellets were resuspended in a small volume of the same buffer and treated with 1 M NaCl.
(§4) Assays of Hp α1,2 and a 1,3 FucT activities were carried out according to the method described by Chan et al. (1995, Glycobiology 5:683-688) with some modifications. Reactions were conducted at 37° C. for 20 min in a volume of 20 μl containing 1.8 mM acceptor, 50 μM GDP-fucose, 60000 dpm GDP-[^3H]fucose, 20 mM HEPES buffer (pH7.0), 20 mM MnCl2, 0.1 M NaCl, 35 mM MgCl2, 1 mM ATP, 5 mg/ml BSA, and 6.2 μl of the enzyme preparation. The acceptors used in this study were: LacNAc [βGal 1-4 βGlcNAc], Le^X [βGal 1-4 (α Fuc1-3) βGlcNAc], Type 1 [[…] 1-3 βGlcNAc], and Le^a [βGal 1-3 (α Fuc1-4) βGlcNAc]. GDP-[^3H]fucose (1.9×10^11 Bq/ml/mmol) was obtained from American Radiolabeled Chemicals Inc. (St. Louis, Mo.). Sep-Pak Plus C-18 reverse-phase cartridges were purchased from Waters (Mississauga, ON). For calculation of the specific activity of the enzyme (micro-units per milligram protein), protein concentrations of the cell extracts were determined with a BCA protein assay kit (Pierce, Rockford, Ill.) using BSA as a standard according to the supplier's instructions.

[2] = Fucosyltransferase assay (GDP-[3H]fucose), acceptor Le^a
Experimental: as §1, §2
(§5) Preparation of cell lysates or cell extracts for the fucosyltransferase assay. […]
(§6) Assays of Hp α1,2 and a 1,3 FucT activities were carried out according to the method described by Chan et al. (1995, Glycobiology 5:683-688) with some modifications. […] For calculation of the specific activity of the enzyme (micro-units per milligram protein), protein concentrations of the cell extracts were determined with a BCA protein assay kit (Pierce, Rockford, Ill.) using BSA as a standard according to the supplier's instructions.

[3] = Reaction products by capillary electrophoresis, TMR-labeled acceptor Type 1; details: acceptor Type 1 labeled with TMR; authentic product H type 1
Excerpt: (§7) The reaction products synthesized from different acceptors by the Hp α1,2 FucT were further characterized by capillary electrophoresis with laser-induced fluorescence detection. The reaction mixture contained the overproduced UA802 α1,2 FucT protein (from pGEMI6 clone), GDP-fucose, and different acceptors labeled with tetramethylrhodamine (TMR). The results (FIG. 7) confirmed the data from the enzyme assay using radioactive labeled GDP-fucose (Table 3B) by identifying the products of the reactions.

[4] = Fucosyltransferase assay (GDP-[3H]fucose), acceptor LacNAc
Experimental: as §1, §2, §5, §6

[5] = Reaction products by capillary electrophoresis, TMR-labeled acceptor Le^X; details: acceptor Le^X labeled with TMR; peak co-migrated with standard Le^Y
Excerpt: as §7

[6] = Reaction products by capillary electrophoresis, TMR-labeled acceptor Le^a; details: acceptor Le^a labeled with TMR; authentic product Le^b
Excerpt: as §7

[7] = Reaction products by capillary electrophoresis, TMR-labeled acceptor LacNAc; details: acceptor LacNAc labeled with TMR; expected product H type 2
Excerpt: as §7

[8] = Fucosyltransferase assay (GDP-[3H]fucose), acceptor Type 1; details: for total activity: from 25 ml cell culture
Experimental: as §1, §2, §3, §4

[9] = acceptor Le^x, membrane fraction
[10] = acceptor Type 1, cytoplasm fraction

B1: α1,2FucT (UA802): H. pylori UA802 α1,2-fucosyltransferase (SEQ ID NO:2), overexpressed in E. coli from plasmid pGEMI6 (protein)
chain: MAFKVVQICGGLGNQMFQYAFAKSLQKHLNTPVLLDTTSFDWSNRKMQLELFPIDLPYANAKEIAIAKMQHLPKLVRDALKYIGFDRVSQEIVFEYEPKLLKPSRLTYFFGYFQDPRYFDAISSLIKQTFTLPPPPENNKNNNKKEEEYQRKLSLILAAKNSVFVHIRRGDYVGIGCQLGIDYQKKALEYMAKRVPNMELFVFCEDLKFTQNLDLGYPFTDMTTRDKEEEAYWDMLLMQSCKHGIIANSTYSWWAAYLMENPEKIIIGPKHWLFGHENILCKEWVKIESHFEVKSQKYNA
specific activity ([1]; acceptor Le^X, proposed product Le^Y, E. coli whole cell extract): 150 ± 33 μU/mg
α1,2 FucT activity (in words) ([1]; acceptor Le^X, enzyme from pGEMI6): considerable activity was observed
activity in the membrane fraction (in words) ([1]; acceptor Le^X, membrane fraction): no detectable activity
relative activity ([1]; acceptor Le^X, relative to UA802 α1,2 FucT on its best substrate Type 1): 49%
relative activity (percentage of the total activity) ([1]; acceptor Le^x, cytoplasm fraction): 100%
specific activity ([1]; acceptor Le^x, cytoplasm fraction of E. coli CLM4 (pGP1-2, pGEMI6), listed as H. pylori α1,2 FucT): 41 μU/mg protein and 38 μU/mg protein
total activity ([1]; acceptor Le^x, cytoplasm fraction, listed as H. pylori α1,2 FucT): 54 μU and 49 μU
relative activity (percentage of the total activity) [1, 9]: 0%
specific activity ([1]; acceptor Le^x, membrane fraction of E. coli CLM4 (pGP1-2, pGEMI6)): 0 μU/mg protein
total activity [1, 9]: 0 μU
activity compared to Le^X ([2]; acceptor Le^a versus Le^X): 2 fold
specific activity ([2]; acceptor Le^a, proposed product Le^b, E. coli whole cell extract): 301 ± 13 μU/mg
relative activity ([2]; acceptor Le^a, relative to UA802 α1,2 FucT on its best substrate Type 1): 97%
reaction product in electropherogram [3]: new peaks co-migrating with authentic products
specific activity ([4]; E. coli whole cell extract containing the overexpressed FucT protein): 14 ± 8 μU/mg
α1,2 FucT activity (in words) ([4]; enzyme from pGEMI6): almost no activity was detected
relative activity ([4]; relative to UA802 α1,2 FucT on its best substrate Type 1): 4.5%
reaction product in electropherogram [5]: a small new peak was produced
reaction product in electropherogram [6]: new peaks co-migrating with authentic products
reaction product in electropherogram [7]: no reaction product representing H type 2 was observed
specific activity ([8]; acceptor Type 1, proposed product H type 1, E. coli whole cell extract): 309 ± 28 μU/mg
relative activity (percentage of the total activity) [8, 10]: 100%
specific activity ([8]; acceptor Type 1, cytoplasm fraction of E. coli CLM4 (pGP1-2, pGEMI6)): 78 μU/mg protein
total activity [8, 10]: 108 μU
specific activity ([8]; acceptor Type 1, membrane fraction of E. coli CLM4 (pGP1-2, pGEMI6)): 8 μU/mg protein
total activity ([8]; acceptor Type 1, membrane fraction): 3 μU
relative activity (percentage of the total activity) ([8]; acceptor Type 1, membrane fraction, listed as H. pylori α1,2 FucT): 3%
relative activity (percentage of the total activity) ([8]; acceptor Type 1, membrane fraction, listed as Hp α1,2 FucT): less than 3%
relative activity ([8]; acceptor Type 1, relative to UA802 α1,2 FucT on its best substrate Type 1): 100%
activity compared to Le^X ([8]; acceptor Type 1 versus Le^X): 2 fold
